For this assay, the target named is SARS-CoV-2 S protein of the B.1 (D614G) variant, on pseudotyped lentiviral particles (SARS-CoV-2). The assay can be described thus: cell-based or functional assay.

Results on 3 molecules are retold here after patent US20240043508A1.

B1: RD3 (antibody, V domains shown)
VH: EVQLLESGGGLVQPGGSLRLSCAASGFTFSDYAMSWVRQAPGKGLEWVSWIYSGSGNKYYADSVKGRFTISRDNSKNTLYLQMNSLRAEDTAVYYCARFPIARTSNSQSSYDGMDVWGQGTLVTVSS
VL: QSVLTQPPSASGTPGQRVTISCSGSSSNIGSNAVSWYQQLPGTAPKLLIYADNKRPSGVPDRFSGSKSGTSASLAISGLRSEDEADYYCGAWDSSLNAYVFGGGTKLTVL
For the molecule B1, the IC50 (nM), pseudotyped virus infection is 2.22 nM and the IC50 (nM), pseudovirus neutralization, luciferase in 293T/hACE2 cells came out at 1.4 nM.

B2: K202.A (bispecific antibody)
heavy: EVQLLESGGGLVQPGGSLRLSCAASGFTFSDYAMSWVRQAPGKGLEWVSWIYSGSGNKYYADSVKGRFTISRDNSKNTLYLQMNSLRAEDTAVYYCARFPIARTSNSQSSYDGMDVWGQGTLVTVSSASTKGPSVFPLAPCSRSTSESTAALGCLVKDYFPEPVTVSWNSGALTSGVHTFPAVLQSSGLYSLSSVVTVPSSSLGTKTYTCNVDHKPSNTKVDKRVESKYGPPCPPCPPCPAPEFLGGPSVFLFPPKPKDTLMISRTPEVTCVVVDVSQEDPEVQFNWYVDGVEVHNAKTKPREEQFNSTYRVVSVLTVLHQDWLNGKEYKCKVSNKGLPSSIEKGQPREPQVYTLPPSQEEMTKNQVSLTCLVKGFYPSDIAVEWESNGQPENNYKTTPPVLDSDGSFFLYSRLTVDKSRWQEGNVFSCSVMHEALHNHYTQKSLSLSLGK
light: QSVLTQPPSASGTPGQRVTISCSGSSSNIGSNAVSWYQQLPGTAPKLLIYADNKRPSGVPDRFSGSKSGTSASLAISGLRSEDEADYYCGAWDSSLNAYVFGGGTKLTVLVAAPSVFIFPPSDEQLKSGTASVVCLLNNFYPREAKVQWKVDNALQSGNSQESVTEQDSKDSTYSLSSTLTLSKADYEKHKVYACEVTHQGLSSPVTKSFNRGEC
scFv: EVQLLESGGGLVQPGGSLRLSCAASGFTFSSYDMSWVRQAPGKGLEWVSGISYSGGSTYYADSVKGRFTISRDNSKNTLYLQMNSLRAEDTAVYYCARDVNFVPLVTFDYWGQGTLVTVSSGGGGSGGGGSGGGGSQSVLTQPPSASGTPGQRVTLSCTGSSSNIGSNSVTWYQQLPGTAPKLLIYDDNQRPSGVPDRFSGSKSGTSASLAISGLRSEDEADYYCGTWDYSLSAYVFGGGTKLTVL
Molecule B2 yielded an IC50 (nM), pseudotyped virus infection of 0.39 nM.

B3: K202.B (bispecific antibody)
heavy: B2 heavy
light: B2 light
scFv: B2 scFv
Take B3: the IC50 (nM), pseudotyped virus infection was found to be 0.12 nM.
